Patent US20210292393A1 (published 2021)

B1: antibody 344 (antibody, V domains shown)
VH: QVQLVESGGGVVQPGRSLRLSCAASGFTFSSYAMHWVRQAPGKGLEWMAVISYDGSNKYYADSVKGRFTISRDNSKNTLYLQMNSLRAEDTAVYFCAKGYSGSYYEPFDYWGQGTLVTVSS
VL: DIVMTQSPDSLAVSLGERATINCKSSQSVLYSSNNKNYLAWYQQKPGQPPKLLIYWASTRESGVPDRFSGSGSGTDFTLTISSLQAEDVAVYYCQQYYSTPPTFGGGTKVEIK
B2: antibody 348 (antibody, V domains shown)
VH: QVQLVQSGSELKKPGASVKVSCKASGYTFTSYAMNWVRQAPGQGLEWMGWINTNTGNPTYAQGFTGRFVFSLDTSVSTAYLQISSLKAEDTAVYYCARDHELPNTSSWFGHFEYWGQGTLVTVSS
VL: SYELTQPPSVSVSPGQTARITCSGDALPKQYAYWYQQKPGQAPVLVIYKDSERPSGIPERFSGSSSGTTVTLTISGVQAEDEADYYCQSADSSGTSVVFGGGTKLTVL
B3: antibody 366 (antibody, V domains shown)
VH: QVQLVESGGGVVQPGRSLRLSCAASGFTFSSYAMHWVRQAPGKGLEWVAVISYDGSNKYYADSVKGRFTISRDNSKNTLYLQMNSLRAEDTAVYYCARGLVGYNWFDPWGQGTLVTVSS
VL: DIQMTQSPSSVSASVGDRVTITCRASQGISSWLAWYQQKPGKAPKLLIYAASSLQSGVPSRFSGSGSGTDFTLTISSLQPEDFATYYCQQANSFTFGPGTKVDIK
B4: antibody 351 (antibody, V domains shown)
VH: HVQLVESGGGVVQPGRSLRLSCAASGFISRNYGMEWVRQAPGQGLEWVAGIWYDGSKKYYADSVKGRFTISRDTSKNTLFLQMDSLRAEDTAVFYCATATKTFCGGDCPPGGMDVWGQGTTVTVST
VL: SYVLTQPPSVSVAPGKTAWITCVGNNIESESVHWYQQRPGQAPVLVIYYDSDRPSGIPERFFGSNSGNTATLTISRVEAGDEADYYCQVWDSNSDLMVFGGGTKLTVL
B5: antibody 343 (antibody, V domains shown)
VH: QVQLVESGGDVVQPGTSLRLSCAASGFTFNNYGFHWVRQAPGKGLEWVALISSDGASTHYADSVKGRFTISRDSSVNTLYLQMNSLSLEDTAVYYCATGHCGTTCYYFDYWGQGTLVSVSS
VL: DIQVTQSPSYLSASVGDRVTITCRASQTISTFLQWYQQKVGKAPKLLIYAASTLQSGVPSRFSGSGSGTDFSLTISSLQPEDFATYYCQQSYSAPLSFGGGTKVEIK
B6: antibody 378 (antibody, V domains shown)
VH: QVQLVQSGAEVKKPGASVKVSCKASGYTFTSYYMHWVRQAPGQGLEWMGIINPSGGSTSYAQKFQGRVTMTRDTSTSTVYMELSSLRSEDTAVYYCARDSGGMDDFWSGYYSPGGDYWGQGTLVTVSS
VL: QSALTQPASVSGSPGQSITISCTGTSSDVGSYNLVSWYQQHPGKAPKLMIYEGSKRPSGVSNRFSGSKSGNTASLTISGLQAEDEADYYCCSYAGSSTWVFGGGTKLTVL
B7: antibody 496 (antibody, V domains shown)
VH: QVQLVQSGAEVKKPGASVKVSCKASGYTFTDYYIHWVRQAPGQGLEWMGWINPNSGGTNYAQKFQGRLTMTRDTSISTAYMELSRLRSDDTAVYYCARVYSMFREFIINPYYYYYGLDVWGQGTTVTVSS
VL: QSALTQPASVSGSPRQSITISCTGTSSDVGSYNLVSWYQQHPGKAPKLMIYEGSKRPSGVSNRFSGSKSGNTASLAISGLQAEDEANYYCCSYAGSSTLVFGGGTKLTVL
B8: antibody 363 (antibody, V domains shown)
VH: EVQLLESGGGLVQPGGSLRLSCAASGFTFSTYAMSWVRQAPGKGLEWVSAISGSGGSTYYADSVKGRFTISRDNSKNTLYLQMNSLRAEDTAVYYCASGYSPDYWGQGTLVTVSS
VL: not shown
B9: antibody 497 (antibody, V domains shown)
VH: QVQLQESGPGLVKPSQTLSLTCTVSGGSINSFGYYWSWIRQHPGKGLEWIGYIYYSGSTDYNPSLNSRVTISLDTSKNQFLLKLTSVTAADTAVYYCAKLTDYYDSSGYSFDYWGQGTLVTVSS
VL: DIQMTQSPSSVSASVGDRVTITCRASQDISRWLAWYQQKPGKAPKLLIYAASSLQSGVPSRFSGRGSGTELTLTISSLQPEDFATYFCQQAYSFPFTFGGGTKVEIK
B10: antibody 492 (antibody, V domains shown)
VH: QVQLVESGGGVVQPGRSLRLSCAASGFTFSSYGMHWVRQAPGKGLEWVAVISYDGSNKYYADSVKGRFTISRDNSKNTLYLQMNSLRAEDTAVYYCAKDGILWWWWGYFDYWGQGTLVTVSS
VL: QSVLTQPPSVSGAPGQRVTISCTGSSSNIGAGFDVHWYQQLPGTAPKLLIYGNSNRPSGVPDRFSGSKSGTSASLAITGLQAEDEADYYCQSYDSSLSVVFGGGTKLTVL
B11: antibody 504 (antibody, V domains shown)
VH: QVQLVESGGGVVQPGRSLRLSCAASGFTFSSYGMHWVRQAPGKGLEWVAVISYDGSNKYYADSVKGRFTISRDNSKNTLYLQMNSLRAEDTAVYYCAKGGGGGYCSGGSCYSHYFDYWGQGTLVTVSS
VL: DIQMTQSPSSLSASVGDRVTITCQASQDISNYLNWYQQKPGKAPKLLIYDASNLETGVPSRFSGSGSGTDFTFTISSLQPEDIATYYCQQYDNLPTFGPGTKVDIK
B12: antibody 367 (antibody, V domains shown)
VH: QVQLVQSGAEVKKPGASVKVSCKASGYTFTGYYIHWVRQAPGQGLEWMGWINPNSGGTIYAQKFQGRVTMTRDTSISTAYMELSRLTSDDTAVYSCAREPYYDILTGYYAPRRYFDYWGQGTLVTVSS
VL: QSALTQPASVSGSPGQSITISCTGTSSDVGSYNYVSWYLQHPGKAPKLMIYDVSNRPSGVSNRFSGSKSGNTASLTISGLQAEDEADFYCSSYTSRSTYVFGTGTKVTVL
B13: antibody 345 (antibody, V domains shown)
VH: QVQLQESGPGLVKPSQTLSLTCTVSGGSISSGDYYWSWIRQPPGKGLEWIGYIYYSGSTYYNPSLKSRVTISVDTSKNQFSLKLSSVTAADTAVYYCARVGMVDNWNFEGNWFDPWGQGTLVTVSS
VL: QSALTQPRSVSGSPGQSVTISCTGTSSDVGGYNYVSWYQQHPGKAPKLMIYDVSKRPSGVPDRFSGSKSGNTASLTISGLQAEDEADYYCCSYAGSVVFGGGTKLTVL
B14: antibody 509 (antibody, V domains shown)
VH: QVQLVESGGGVVQPGRSLRLSCAASGFNLSSYAMHWVRQASGKGLEWVSLISYDGSIKYYTDSVKGRFTVSGDNSKNTLFLQMNSLRADDSALYYCVRGGVSGPNSFDLWGQGTTVTVSS
VL: DVVMTQSPLSLPVTLGQPASISCRSSQSLVYSDGNTYVNWFQQRPGQSPRRLIYKVSIRASGVPDRFSGSGSGTDFALKISRVEAEDVGVYYCMQGTHWPVTFGQGTKVEIK
B15: antibody 380 (antibody, V domains shown)
VH: QVQLVESGGGVVQPGRSLRLSCAASGFTLKNYGMHWVRQAPGKGLEWVIVLSFDGSDEYKADSVRGRFTVSRDNSKNTLFLQMNSLRPDDTAVYYCAREQPTMIEGGRGPFDIWGQGTMVTVSS
VL: EVVMTQSPATLSVSPGDRATLSCRASQGVNSNLAWYQQKPGQAPRLLIYAASTRATGIPARFSASGSGTHFTLTISSLQSEDFAVYYCLQYNNWPPWTFGQGTKLEIK
B16: antibody 372 (antibody, V domains shown)
VH: QVQLVESGGGVVQPGRSLRLSCAASGFTFSSYAMHWVRQAPGKGLEWVAVISYDGSNKYYADSVKGRFTISRDNSKNTLYLQMNSLRAEDTAVYYCARDLGTSALLWFGELFLNYGMDVWGQGTTVTVSS
VL: QSALTQPRSVSGSPGQSVTISCTGTSSDVGGYNYVSWYQQHPGKAPKLMIYDVSKRPSGVPDRFSGSKSGNTASLTISGLQAEDEADYYCCSYAGSPILVFGGGTKLTVL

Key:
[1] = molecular target: SARS-CoV-2 spike (S) protein, full length, wild type, expressed on the surface of CHO cells (SARS-CoV-2, UniProt P0DTC2 14-1273)
[2] = molecular target: SARS-CoV-2 full length spike protein, wild type, expressed on the surface of CHO cells (SARS-CoV-2, UniProt P0DTC2 14-1273)

| Binder | median fluorescence fold over isotype [1] [fold over isotype] | median fluorescence fold over isotype control [2] [fold over isotype] |
| --- | --- | --- |
| B1 | 7.55 |  |
| B2 | 19.6 |  |
| B3 | 8.97 |  |
| B4 | 1.06 |  |
| B5 | 1.12 |  |
| B6 | 25.3 |  |
| B7 |  | 19.7 |
| B8 | 16.8 |  |
| B9 |  | 28.3 |
| B10 |  | 9.25 |
| B11 |  | 2.78 |
| B12 | 26.5 |  |
| B13 | 11.7 |  |
| B14 |  | 10.2 |
| B15 | 1.06 |  |
| B16 | 30.2 |  |
